According to patent US20110165265A1, “TRAIL VARIANTS FOR TREATING CANCER” (FUNDACIÓ GENÒMICA (CRG), priority 2007, published 2011):
Several values for one entry are separate records, joined by “and”; a condition that tells them apart may be missing. Identical values can stand only once. Entries after “also recorded” stand apart in the source; their conditions may differ.

B1: wtTRAIL: wild-type soluble recombinant human TRAIL, amino acids 114-281 (SEQ ID NO: 3) (protein, listed as Homo sapiens)
chain: MVRRGRVAAHTGTRGRSNTSSNSKNKAGRKNSWSSRSGHSSNHRNGVHKGYYYSTYRKNTKNDKMVYYKYTSYDMKSARNSCWSKDAYGYSYGGKNDRVSVTNHDMDHASGAVG
modifications: TRAIL 114-281
B2: D269HE195R: rhTRAIL (114-281) carrying mutations D269H and E195R; DR5-selective TRAIL variant (protein)
chain: MVRERGPQRVAAHITGTRGRSNTLSSPNSKNEKALGRKINSWESSRSGHSFLSNLHLRNGELVIHEKGFYYIYSQTYFRFQERIKENTKNDKQMVQYIYKYTSYPDPILLMKSARNSCWSKDAEYGLYSIYQGGIFELKENDRIFVSVTNEHLIDMHHEASFFGAFLVG

What was measured:
[1] = system: Colo205 cells; test: Kinetics of receptor activation and apoptosis induction, ligand wash-out in Colo205; format: cell-based, human; conditions: Colo205, 30 ng/ml; for incubation time to reach 50% of total efficacy: ligand washed out, Annexin V at 240 min
Procedure: Cell death induction was expressed relative to the percentage of death induced after 240 min without washing out the ligands.
The cells were harvested and cell death was quantified with Annexin V labelling (FIG. 16B), as described above. The data was fitted with an interpolating spline using the software MatlabR.
The cells were then incubated to a total of 180 min in normal growth medium and then the level of cell death was determined (FIG. 16C).

[2] = system: A2780 cells; test: Annexin V apoptosis assay in A2780; format: cell-based, human
[3] = system: A2780 cells; test: Caspase-3 activity and acridine orange apoptosis assays in A2780; format: cell-based, human; conditions: for effect of DcR2 blocking antibody on apoptosis induction: A2780; for effect of DR5 siRNA on induced apoptosis: A2780, also with cisplatin
[4] = system: human umbilical vein endothelial cells (HUVEC); test: Viability of HUVEC; format: cell-based; conditions: for cell viability: 50-500 ng/ml, 24 h, MTT
Procedure: Human dermal fibroblasts were grown in low glucose DMEM (Sigma) supplemented with 10% fetal calf serum, 50 U/ml penicillin and […] streptomycin; human umbilical vein endothelial cells (HUVEC, PromoCell) were cultured in Endothelial Cell Growth Medium with SupplementMix (PromoCell). Fibroblasts and HUVEC cells were seeded at 1.3×10^5 cells/ml 24 h before treatment with increasing concentrations of TRAIL and DR5-selective variants, D269H and D269HE195R (50-500 ng/ml) for 24 h and cell viability was measured using MTT assay, wherein 200 μg/ml MTT (3-(4,5-dimethylthiazo1-2-yl)-2,5-diphenyl-tetrazolium bromide) was added to control and treated cells and incubated for 3 h at 37° C. The reaction was stopped and the purple formazan precipitate formed was dissolved using dimethyl sulfoxide (DMSO) and the colour intensity was measured at 550 nm on a Wallac multilabel counter. The control value corresponding to untreated cells was taken as 100% and the viability of treated samples was expressed as a percentage of the control. (FIG. 15).

[5] = system: Colo205 tumors; test: Colo205 tumors in athymic nude mice; format: in vivo; conditions: for anti-tumor effect, single therapy: 1 and 5 mg/kg IP
Procedure: The anti-tumor effect of rhTRAIL WT and D269HE195R was tested in a small number of athymic nude mice carrying a tumor of Colo205 cells (n=3 to 5 per group). The rhTRAIL proteins were tested in doses of 1 and 5 mg/kg, given by intraperitoneal injections for 2×5 days (day 1-5 and 8-12) with a daily doses of aspirin (in the same syringe as protein).
In a third study the combination between TRAIL and aspirin was tested. […] Both were tested in doses of 1 and 5 mg/kg, given by intraperitoneal injections for 2×5 days (day 1-5 and 8-12) with daily doses of aspirin (in the same syringe as protein). Data is only presented until day 13, because of too many fluctuations and mice dying after this day.

[6] = system: HeLa xenografts; test: HeLa xenografts in athymic nude mice; format: in vivo; conditions: start at +/−150 mm3
Excerpt: Xenografts of the HeLa cervical cancer cell line were established with matrigel in athymic nude mice. Treatment was started when tumor volume was +/−150 mm3.

[7] = system: Colo205 cells; test: Cell survival / sensitivity of Colo205; format: cell-based
Procedure: (B) Effect of increasing concentrations of Aspirin on cell viability. (C) Effect of increasing concentrations of 5-Flurouracil on cell viability. (D) Combination therapy with 5 mM Aspirin pre-incubated for 24 h lead to further decreases in cell viability in cells treated with both TRAIL and two of the DR5 mutants. (E) 30 minute incubation of DR5 mutants, were sufficient decrease cell viability which was further augmented when cells were pre-incubated for 24 h with Aspirin. The shorter incubation period lead to a decrease potency of TRAIL alone or in combination with Aspirin. […] (G) 30 min incubation of the DR5 mutant was sufficient to decrease cell viability which was not enhanced by 5-Flurouracil, and once again the decease potency of TRAIL is seen. Proteins are indicated as follows: TRAIL stands for rhTRAIL WT; D269H stands for rhTRAIL carrying mutation D269H; E195R stands for rhTRAIL carrying mutations D269H and E195R; and M1 stands for rhTRAIL carrying mutations D269H, E194I and I196S.
TRAIL-induced cell death as a function of concentration was measured with the MTS assay.

[8] = system: LoVo cells; test: Cell survival / sensitivity of LoVo; format: cell-based
Excerpt: C) Effect of increasing concentration of 5-Flurouracil on Lovo cells.

[9] = system: Caski cells; test: Cell survival / sensitivity of Caski; format: cell-based
[10] = system: HCT15, HT29 and RKO cells; test: Cell survival of HCT15, HT29 and RKO; format: cell-based
[11] = molecular target: T1, DR4 (Homo sapiens, UniProt O00220); conditions: cited from earlier work
T1 construct: the more commonly used dimeric TRAIL-receptor-IgG Fc chimeric constructs
T1 sequence (O00220 24-239 limits assumed): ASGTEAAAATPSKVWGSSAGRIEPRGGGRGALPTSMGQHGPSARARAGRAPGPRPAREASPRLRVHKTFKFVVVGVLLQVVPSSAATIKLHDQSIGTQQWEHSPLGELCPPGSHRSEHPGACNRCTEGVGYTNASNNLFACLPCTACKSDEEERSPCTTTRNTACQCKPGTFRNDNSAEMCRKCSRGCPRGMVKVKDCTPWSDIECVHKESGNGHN

[12] = molecular target: T2, DcR1 (Homo sapiens, UniProt O14798); conditions: cited from earlier work
T2 construct: soluble, recombinant DcR1-Ig (sDcR1) and DcR2-Ig (sDcR2); purchased R&D Systems
T2 sequence (O14798 26-236 limits assumed): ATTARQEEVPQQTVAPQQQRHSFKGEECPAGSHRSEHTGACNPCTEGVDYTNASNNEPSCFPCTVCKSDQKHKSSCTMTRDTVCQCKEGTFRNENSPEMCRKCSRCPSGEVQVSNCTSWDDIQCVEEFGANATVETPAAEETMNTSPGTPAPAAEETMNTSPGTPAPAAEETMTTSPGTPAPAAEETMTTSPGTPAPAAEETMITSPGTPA

[13] = molecular target: T3, DcR2 (Homo sapiens, UniProt Q9UBN6); conditions: cited from earlier work
T3 construct: soluble, recombinant DcR1-Ig (sDcR1) and DcR2-Ig (sDcR2); purchased R&D Systems
T3 sequence (Q9UBN6 56-211 limits assumed): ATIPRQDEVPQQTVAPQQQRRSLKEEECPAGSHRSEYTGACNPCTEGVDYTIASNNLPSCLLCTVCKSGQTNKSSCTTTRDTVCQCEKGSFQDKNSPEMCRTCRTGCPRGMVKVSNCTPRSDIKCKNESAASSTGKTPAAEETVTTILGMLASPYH

[14] = system: A2780-Luc xenografts; test: IP A2780-Luc xenografts, bioluminescence imaging; conditions: for mean signal reduction as to vehicle treated mice: day 16, IP treatment; for light emission (bioluminescent signal): day 16, mean±SEM; for median survival: surrogate endpoint signal ≧3.1×10^8
Procedure: Visualization of response to TRAIL, TRAIL-DR5, cisplatin and to the combination of either ligand with cisplatin by means of bioluminescence imaging. Nude mice were inoculated IP with 2×10^6 A2780-Luc cells. After 5 days treatment was initiated; cisplatin (4 mg/kg IP) or vehicle at day 5 and 12, TRAIL, TRAIL-DR5 (5 mg/kg IP) or vehicle at day 5-10 and 12-16, or a combination of TRAIL or TRAIL-DR5 with cisplatin.
Female nude mice (Hsd:Athymic Nude-nu) were obtained from Harlan Nederland (Horst, The Netherlands) at 6-8 weeks of age (˜21 g). Inoculation was performed after 10 days of acclimatization.
Imaging was conducted with the IVIS 100 series (Xenogen Corporation Alameda, Calif.), composed of a cooled charge-coupled device camera connected to a light tight black chamber. Before in vivo imaging animals were anesthetized with 4% isoflurane and injected IP with D-luciferin (150 mg/kg, Xenogen) reconstituted in sterile PBS. Mice were placed in prone position on a warmed stage (37° C.) in the imaging chamber, and grayscale reference images were obtained under dim illumination. Pseudocolor images representing bioluminescent intensity were acquired with Livinglmage software (version 2.50, Xenogen) 10 and 15 min after D-luciferin injection in complete darkness. These images were superimposed on the grayscale images for analysis with Igor Pro software (version 4.09, WaveMetrics, Lake Oswego, Oreg.). All bioluminescence imaging (BLI) data are depicted in radiance units (photons/sec/cm^2/sr) enabling absolute comparisons between bioluminescent images and represent final data obtained after subtraction of the background signal.

[15] = lowest dose 1 mg/kg + 200 mg/kg aspirin

Molecule | incubation time to reach 50% of total efficacy [1] | effect of DcR2 blocking antibody on apoptosis induction [3] | effect of DR5 siRNA on induced apoptosis [3] | cell viability [4] | effect of combination with aspirin ([5]; 5 mg/kg + 200 mg/kg aspirin) | effect of combination with aspirin [5, 15] | effect on xenografts [6] | effect of 5-FU and Aspirin on induced apoptosis ([7]; Colo205) | cell viability, single agent [8] | effect of 5-FU and Aspirin on induced apoptosis [8] | cell viability, single agent [9] | effect of combination with bortezomib [9] | cell viability with or without 5-Flurouracil [10] | mean signal reduction as to vehicle treated mice [14] [%] | light emission (bioluminescent signal) [14] | median survival [14] [days] | other results
B1 | 60.81 min and 60.8 ± 4.3 min | did not enhance apoptosis induction | completely protected | Neither wtTRAIL nor the DR5-selective variants had any effect; also recorded: did not result in a decrease in cell viability | additive effect | additive effect | No effect was observed | enhanced apoptosis | equal decrease in cell viability | enhanced apoptosis | comparable | increased tumor cell death | equal decrease in cell viability | 48.8 | 2.3×10^8±3.1×10^7 radiance units | 21 | incubation time for significant pro-caspase-8 processing ([1]; Western blot): 60 min; cell death ([2]; A2780, highest concentration tested 250 ng/ml): ≤ 24.3±4.5%; cytotoxic effects on noncancerous cells ([4]; 100 ng/ml): no cytotoxic effects were observed; Kd ([11]; surface plasmon resonance, read-out: binding affinity Kd for DR4): 2.5 nM; Kd ([12]; surface plasmon resonance, read-out: binding affinity Kd for DcR1): ~25 nM; Kd ([13]; surface plasmon resonance, read-out: binding affinity Kd for DcR2): ~8 nM
B2 | 3.55 min and 3.6 ± 0.4 min | did not enhance apoptosis induction | completely protected | did not result in a decrease in cell viability | not visible | additive effect | No effect was observed | enhanced apoptosis | equal decrease in cell viability | enhanced apoptosis | comparable | increased tumor cell death | equal decrease in cell viability | 68.3 | 1.4×10^8±1.3×10^7 radiance units | 21 | effect of 5 or 10 min pre-incubation with wtTRAIL on induced apoptosis [1]: failed to reduce; apoptosis ([2]; A2780, 10 ng/ml, Annexin V): 30.6±2.5%; anti-tumor effect, single therapy ([5]; listed as TRAIL-DR5): nice response; anti-tumor effect, single therapy ([5]; listed as mutant TRAIL): reduces the tumor growth; also recorded: some positive effect on the tumor growth; cell viability, single agent ([7]; Colo205): significantly less cell viability than TRAIL; sensitivity, single agent comparison ([7]; Colo205): higher sensitivity; efficient concentration compared to wtTRAIL ([7]; Colo205, MTS dose-response): efficient at a several fold lower concentration than needed for wtTRAIL; sensitivity, single agent comparison [8]: higher sensitivity; binding to DR4 ([11]; earlier work referred to): virtually absent; binding capacity to DcR1 ([12]; earlier work referred to): virtually absent; affinity for DcR2 ([13]; earlier work referred to): reduced
